# Results taken from the supplement of paper PMC11502859.
# “And” between values parts separate entries of the source, which are not always exact repeats. Identical values can stand only once.
# Tested on: HEK293T
# Experiment: median enrichment of reporter reads in eGFP-reduced (low/intermediate) vs eGFP-high sorted cells (eGFP-extension fusion abundance) (ratio); higher = stronger loss of eGFP-fusion protein abundance (more destabilising extension)
# 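Note: lentiviral eGFP-IRES-mCherry reporter pool sorted by FACS 96 h post-transduction, gated on mCherry-high cells, Illumina read counts normalized per million, median across four biological replicates.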
row,Substance,median enrichment
1,QCYLVSF [TRMT10A],4.82
2,WKGRAQQCK [IRX2],0.459
3,EKHLKC [FAN1],0.297
4,SNSLRLAAPLGFLPCRTCLEVLPGGGGRGRLDLLS [AQP6],3.45
5,EKSYMAKRSRSKFRSHSQGNQYLPI [SNX24],1.3
6,LGTQASPSLTAEVRNKRWFRVPA [PSMC3],8.36
7,RGASSSE [SLC1A6],0.611 and 0.437
8,WPPPASLSPHP [TTC24],0.329
9,RRTACSDQRAQRPEDKSGGDSMGMGVGCLRERTHGLGRGERCMGITFARAAYLKVTVSSGTAGDRYLLLQEINYPENSTQPVT [LEXM],13.9
10,YILLADHYCGLKDDHLV [WFDC9],7.3
11,LKTPHPSLLECVWPFSSFSWQHQLGCFLCVWPQVSK [DUSP6],6.83
12,QRKKRKTALGLAYGLRGCCC [WEE2],6.66
13,RDKVRVFSSYILSQATLQDVAKAYIFP [IPCEF1],3.59
14,CPQPGY [B3GNT7],0.431
15,LKG [SSBP1],0.599
16,LVVDVWGI [XRCC5],4.14
17,CLSGRANPENEDWKKEKKKNTSKVSSEIVLHLLYSLEDFHYVLTTLKCVNS [FOXP1],9.44
18,KNF [PLXDC2],0.62
19,YEDPPEE [IGF1],2.17
20,YNPFALMSLPFVT [SIX2],1.36
21,WFYILTS [CLHC1],5.45
22,LIFLI [MAP2],6.91
23,WWRDTRGLATLWGNWHQELLHLVSAQVDLRKGWIPVPEHQIPRQLMRLAQCVTEAPGSQQSRAYSAHQAEQATGRDDASGQGS [CCDC137],7.53

row,Substance,median enrichment
1,GACFAVGHPAKQANMETTCNLARLYLV [DDX3X],17.6
2,QRCEGIGETLGWLVMVSIAGHQKLDS [B4GALNT2],4.77
3,QACPAVNLHLEP [SEC16A],0.624
4,SLYQKPEVE [UGT2B17],0.724
5,WPMLNTHV [NABP1],0.435
6,KQWQQLGLETSRWCWDHLSLLLLASHSL [PACRG],7.92
7,SDP [CYGB],0.606
8,WLVAIFQHSSCIL [LVRN],13.3
9,ECDKVQPSDLIIHKIIYT [ZNF679],8.95
10,SYFRLESKTS [PIK3CG],1.99
11,SITLILWKSEQAVAVFHSSSCCVQLLPSQPFNKIILKCYPSALPFNGKMKGSDNTGGPNFVPVLCVPYLSVPVYRLCKSLV [RABL3],6.24
12,RGPEASWVSLGPQKLIKE [PCP2],0.815
13,LLAL [MS4A5],7.23
14,WKK [JAK2],0.476
15,TSLYKKVGMGRK [Degron APPBP2],14.1
16,LRRIQICVCVCVCVCVCVCVCVSLCLCIG [KIFC1],24.3
17,STSHAYQVAELGPLGQGAQATSSFVVTKQGSPFPFLLPYFVQRTRVIYIYICICLYPSPHLSDSALGTQLWAARGAVPCGSSC [SCAMP5],5.87
18,QRHASFTISGKRTHCAYSDCRVYKRQPFGYYCCKVQILQASSDICIYCHYCLWKKQGIKVPVHLMYYFL [NEUROD1],14.6
19,RYPGASPVTVTAAPPPRLLSASNHLDSPEESPMETALIRCPAAARGPRSPRVPLKECLGHIRPARSRERAPNARPG [CUX1],4.54
20,TTTTTTTTTT [Thr10],0.379
21,WGHQSPQWTDAFDGQDEGQGHWSEGVDKTAAI [TBC1D21],0.0629
22,KPSEFSL [CD163],0.535
23,YKISPLPACCKVT [CAMKK2],11.5

row,Substance,median enrichment
1,QRLDMLSPNEPLSSPGEGR [ISX],0.656
2,WRRLVSTHSGAFLISSSHTNHPSLPIVSSSQ [CYP19A1],12.8
3,CGVSPGLMVCLL [APOBEC3F],12.2
4,LFQPGPKPTGVCGRARTQEV [DNMT3B],3.86
5,YPSVLHTARGPRMPRPPLAPAGREPDHLPC [CHI3L1],2.05
6,WSPMPAHL [CDNF],9.59
7,LSPLFLPTLQGPHSPYPSVQCTREETLCL [IDH3B],7.06
8,YEGPSRRATQATVPVPAFPTPAVAPPHPLPLFVPFDERLFTGVGWRDGLEGAQSIRLQGPSWEK,2.44
9,LGGVWGHPS [ZG16B],2.14
10,YELEQLGNKLSTSRHLLSFAMCLMP [OR51A7],3.52
11,EIKCTRSQ [NLRC4],9.53
12,WGGVGPGRAGVCWHRQPPLWALGGPLKGSPTRGPDESFLSGVGSQRGSPPAAWGRAWPGRVIQRVCQPLTGSPSVAATRSTEL [FAM53B],5.84
13,SVAHSGKGVLCEHVEA [GATC],0.756
14,TQWAPCTPVSGAVRLGYIVNSASTERLALRASSESSSSGTPPKPTPPGTPLSGIPAKRRTLSRSRPPHPQSVAPPTEQPRFGP [PRRT1],0.999
15,REA [NPSR1],4.09
16,RRPRAPHLSRSLMPQGAQ [SLC44A2],1.11
17,SEEQPSFVPVVFIKYPLHP [WDR54],6.65
18,VVV [Val03],0.518
19,SERQEVEWRR [STAMBPL1],0.37
20,LNQFLGLTAM [BTN2A1],12.4
21,GGGGG [Gly05],1.79
22,SKRPGRKPPPLKVVFVTVLWSIVLKMGNYILLCQGQQTPAVKGIPSARRLFGACMFIAPARPDRGLLHKPCLVHFFTCKGTEC [AHNAK],7.93
23,KGPEPGWGISAGQRRRLSQLFPDIQGHCSLLPSRTSLLPPTMAGGEQVSQKHPVPRMVLCACPSLLGLPFPLLREDVSLLTCT [KIRREL1],7.38

row,Substance,median enrichment
1,SDASTGPSLFCPQP [HSPB8],0.471
2,GRNQQSTSAGQQPREPLPTRIAGSVTEQAG [ETV6],4.01
3,LKSKLVVLQLCVTFSPSAVSVQHLFHKCFVFSNTVFTTLLACICMFYTKAYTVLCEAIRSRKGIVNNIKHFYTKIICFVIRF [SLC44A5],2.32
4,CNDKSRSKEIVGPKGKEGKSAPRLGPGTHTPPDHLGNSRALRSRMLTKSNIQSLVNQDAVSPSVWQSVALAAGKLKADFHSYV [RNF150],4.3
5,STIEICSEM [PCDH11Y],0.758
6,YNLLLIIISEIISGSPWTTS [ZIC5],5.16
7,WGCSGNSHSAPIRAPCRGPSVVSD [TBC1D14],2.19
8,SEPSHSLSPLPCLPHLPPTTRA [RAB3A],0.136
9,EATKRPGFSSCCHQLALWPRARCLPFMFPHLQSELVVPDDLRSHDLLTCPMILYFVGRSIKQLLLLLCANHSCNFCSAYLPLF [ADAMTSL1],5
10,WRGARAPWSL [CEP104],1.95
11,YIIHCIFYFYHILHIQQNLYVVIGII [ELMOD2],7.8
12,ELLGQRLKPQDPCCPSRSFFLESQGKPFRAAPPSGQKLK [ALG1],3.82
13,QNTFLL [CFAP97],0.56
14,LHTELFIDTPHDCISRTHLLIILDPRETITSPSRQWRQIKISAEKEGHVEPQKHFYSG [SNTG1],9
15,SGASQRSAHADNKVALSLE [FIBP],0.209
16,SIFFYQEG [PTEN],2.76
17,EGLATPVKAVLLLDTISSSGRAVERESNFLLEEYLCLLTLN [CDC14A],6.01
18,SPGEKL [ZNF322],0.169
19,AAAAAAAAA [Ala09],8.59
20,KKKKKK [Lys06],1.5
